Test results published in publication PMC5793090 (Toxins, 2017).
Values joined by “and” are separate entries in the source; they are usually repeats but may differ in a detail not shown here. Equal values may be shown once.

B3: Recombinant human extracellular rLu/BCAM with Fc-tag (Fc fusion)
chain: EVRLSVPPLVEVMRGKSVILDCTPTGTHDHYMLEWFLTDRSGARPRLASAEMQGSELQVTMHDTRGRSPPYQLDSQGRLVLAEAQVGDERDYVCVVRAGAAGTAEATARLNVFAKPEATEVSPNKGTLSVMEDSAQEIATCNSRNGNPAPKITWYRNGQRLEVPVEMNPEGYMTSRTVREASGLLSLTSTLYLRLRKDDRDASFHCAAHYSLPEGRHGRLDSPTFHLTLHYPTEHVQFWVGSPSTPAGWVREGDTVQLLCRGDGSPSPEYTLFRLQDEQEEVLNVNLEGNLTLEGVTRGQSGTYGCRVEDYDAADDVQLSKTLELRVAYLDPLELSEGKVLSLPLNSSAVVNCSVHGLPTPALRWTKDSTPLGDGPMLSLSSITFDSNGTYVCEASLPTVPVLSRTQNFTLLVQGSPELKTAEIEPKADGSWREGDEVTLICSARGHPDPKLSWSQLGGSPAEPIPGRQGWVSSSLTLKVTSALSRDGISCEASNPHGNKRHVFHFGTVSPQTSQA
notes: also called rLu/BCAM-Fc; recombinant Lu/BCAM; source: bought: Hölzel Diagnostika Handels GmbH

Legend:
[1] = molecular target: Lu12-Fc; assay: SPR
[2] = molecular target: B3; assay: SEC; settings: both partners purified
[3] = molecular target: B3; assay: small-angle X-ray scattering (SAXS); settings: both partners purified
[4] = molecular target: T1, GST-CNF1 (full-length Cytotoxic Necrotizing Factor 1 of Escherichia coli as GST fusion) (Escherichia coli, UniProt Q47106 1-1014, DyLight488 Maleimide label in the flow cytometry experiments only); assay: SPR
T1 chain: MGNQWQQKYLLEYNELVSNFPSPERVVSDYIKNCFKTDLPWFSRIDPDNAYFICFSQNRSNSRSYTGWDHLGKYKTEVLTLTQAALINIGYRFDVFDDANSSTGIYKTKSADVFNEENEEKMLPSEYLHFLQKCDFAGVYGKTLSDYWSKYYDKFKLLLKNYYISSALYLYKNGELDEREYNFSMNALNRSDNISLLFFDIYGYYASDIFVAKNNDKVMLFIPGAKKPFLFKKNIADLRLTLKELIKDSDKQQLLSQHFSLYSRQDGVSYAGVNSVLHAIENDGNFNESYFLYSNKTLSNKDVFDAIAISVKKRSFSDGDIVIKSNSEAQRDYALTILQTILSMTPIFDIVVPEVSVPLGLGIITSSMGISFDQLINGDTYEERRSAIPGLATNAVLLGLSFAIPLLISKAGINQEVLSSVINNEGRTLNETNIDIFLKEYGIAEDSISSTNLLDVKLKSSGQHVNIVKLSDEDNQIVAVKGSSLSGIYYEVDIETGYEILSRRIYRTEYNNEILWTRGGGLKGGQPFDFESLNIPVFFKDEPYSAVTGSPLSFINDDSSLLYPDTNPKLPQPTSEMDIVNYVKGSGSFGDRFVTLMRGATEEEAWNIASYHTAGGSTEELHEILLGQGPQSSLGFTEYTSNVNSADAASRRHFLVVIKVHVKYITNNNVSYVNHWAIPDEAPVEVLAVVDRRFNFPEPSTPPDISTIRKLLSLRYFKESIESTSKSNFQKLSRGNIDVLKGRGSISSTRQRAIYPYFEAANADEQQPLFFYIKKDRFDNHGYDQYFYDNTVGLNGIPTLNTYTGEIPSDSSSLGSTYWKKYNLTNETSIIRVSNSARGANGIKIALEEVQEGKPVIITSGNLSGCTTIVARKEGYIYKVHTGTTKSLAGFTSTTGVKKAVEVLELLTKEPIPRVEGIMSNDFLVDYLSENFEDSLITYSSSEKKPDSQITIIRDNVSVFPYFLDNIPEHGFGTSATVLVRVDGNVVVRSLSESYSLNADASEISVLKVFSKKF

[5] = molecular target: T2, GST-CNF1 (full-length Cytotoxic Necrotizing Factor 1 of Escherichia coli as GST fusion) (Escherichia coli, UniProt Q47106 1-1014, DyLight488 Maleimide label in the flow cytometry experiments only); assay: far-Western, overlay or dot blot; CNF proteins spotted on a nitrocellulose membrane, incubated with 5 µM rLu/BCAM in TBST for 30 min, then blocked with 5% milk; bound rLu/BCAM detected with an anti-Lu/BCAM antibody; settings: both partners purified
T2 construct: also called full-length CNF1; full toxin
T2 sequence: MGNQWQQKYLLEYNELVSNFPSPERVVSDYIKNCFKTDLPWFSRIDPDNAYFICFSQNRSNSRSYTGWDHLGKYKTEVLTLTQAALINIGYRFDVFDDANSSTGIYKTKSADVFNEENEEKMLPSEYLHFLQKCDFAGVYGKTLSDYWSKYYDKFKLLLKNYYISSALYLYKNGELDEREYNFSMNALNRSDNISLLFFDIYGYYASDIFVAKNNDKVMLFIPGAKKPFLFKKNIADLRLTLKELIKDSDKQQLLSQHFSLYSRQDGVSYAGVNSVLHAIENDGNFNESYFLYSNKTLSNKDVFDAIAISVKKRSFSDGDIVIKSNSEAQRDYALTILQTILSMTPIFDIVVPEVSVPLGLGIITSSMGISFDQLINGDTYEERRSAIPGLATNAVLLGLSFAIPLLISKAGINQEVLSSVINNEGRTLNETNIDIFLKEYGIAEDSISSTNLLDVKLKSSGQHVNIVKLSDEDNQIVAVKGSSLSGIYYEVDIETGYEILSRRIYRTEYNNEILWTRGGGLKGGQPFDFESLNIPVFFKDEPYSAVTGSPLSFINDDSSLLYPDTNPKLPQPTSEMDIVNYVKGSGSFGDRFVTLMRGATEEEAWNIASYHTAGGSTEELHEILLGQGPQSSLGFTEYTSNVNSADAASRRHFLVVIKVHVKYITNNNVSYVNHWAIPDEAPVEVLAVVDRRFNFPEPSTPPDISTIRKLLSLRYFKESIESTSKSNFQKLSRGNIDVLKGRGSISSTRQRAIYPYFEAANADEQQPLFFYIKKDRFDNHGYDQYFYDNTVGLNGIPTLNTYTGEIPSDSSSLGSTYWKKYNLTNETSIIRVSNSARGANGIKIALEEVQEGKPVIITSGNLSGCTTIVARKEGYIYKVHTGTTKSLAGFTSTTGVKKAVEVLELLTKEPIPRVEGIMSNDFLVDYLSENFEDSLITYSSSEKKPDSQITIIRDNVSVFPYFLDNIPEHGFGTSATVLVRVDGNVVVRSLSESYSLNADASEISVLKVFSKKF

[6] = molecular target: the molecule itself; assay: SEC

Molecule: GST-CNF1 (full-length Cytotoxic Necrotizing Factor 1 of Escherichia coli as GST fusion) (from UniProt Q47106 1-1014) (natural protein)
- Kd [1]: 2 nM

B1: CNF1 (720–1014), GST-tag removed (domain or fragment)
chain: SIESTSKSNFQKLSRGNIDVLKGRGSISSTRQRAIYPYFEAANADEQQPLFFYIKKDRFDNHGYDQYFYDNTVGLNGIPTLNTYTGEIPSDSSSLGSTYWKKYNLTNETSIIRVSNSARGANGIKIALEEVQEGKPVIITSGNLSGCTTIVARKEGYIYKVHTGTTKSLAGFTSTTGVKKAVEVLELLTKEPIPRVEGIMSNDFLVDYLSENFEDSLITYSSSEKKPDSQITIIRDNVSVFPYFLDNIPEHGFGTSATVLVRVDGNVVVRSLSESYSLNADASEISVLKVFSKKF
notes: also called CNF1 catalytic unit
- stoichiometry N [2]: 6 Lu/BCAM per CNF1
- stoichiometry N [3]: 1 CNF1 molecules per rLu/BCAM assembly and 2 CNF1 molecules per rLu/BCAM assembly

B2: Lu12-Fc (Fc fusion)
chain: EVRLSVPPLVEVMRGKSVILDCTPTGTHDHYMLEWFLTDRSGARPRLASAEMQGSELQVTMHDTRGRSPPYQLDSQGRLVLAEAQVGDERDYVCVVRAGAAGTAEATARLNVFAKPEATEVSPNKGTLSVMEDSAQEIATCNSRNGNPAPKITWYRNGQRLEVPVEMNPEGYMTSRTVREASGLLSLTSTLYLRLRKDDRDASFHCAAHYSLPEGRHGRLDSPTFH
- koff [4]: 3e-05 s⁻¹

Molecule: B3
- binding result [5]: binds
- stoichiometry N [6]: 6
